B1: lpl-P (lpl cluster promoter, SarA box) (dsDNA)
DNA 1: CCACGAGGATTTAATCATAAAATTTCCTCTAGTATTATTAATATTGGAATTTGAAC
DNA 2: GTTCAAATTCCAATATTAATAATACTAGAGGAAATTTTATGATTAAATCCTCGTGG
B2: lpl-PM (GC-rich SarA box mutant) (dsDNA)
DNA 1: CCACGAGGGGGGGGGCGGGGGGGTTCCTCTAGTATTATTAATATTGGAATTTGAAC
DNA 2: GTTCAAATTCCAATATTAATAATACTAGAGGAACCCCCCCGCCCCCCCCCTCGTGG

Target: T1, SarA-his (Staphylococcus aureus N315, UniProt Q7A732 1-124)
T1 sequence: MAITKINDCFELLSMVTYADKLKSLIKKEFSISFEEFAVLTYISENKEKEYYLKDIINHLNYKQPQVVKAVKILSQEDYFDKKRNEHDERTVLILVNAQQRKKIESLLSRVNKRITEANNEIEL
Experiment: EMSA; SarA-his 0-240 pM (so in the source), 10 pmol DNA; 10 mM HEPES pH 7.6, 1 mM EDTA, 2 mM DTT, 50 mM KCl, 0.05% Triton X-100, 5% glycerol; 20 min room temperature; […]
Settings: protein: recombinant; tags: N-terminal His6 (pET28a); chain copies: 2; label: none (GelRed stain); blunt

| Binder | binding result |
| --- | --- |
| B1 | binds |
| B2 | no binding |
